# From patent US6258776A, “Calcium-regulated kinase” (priority 1997, dated 2001)
# B1: S100B: EF hand calcium-binding protein of the S100 family; bovine S100B homodimer or recombinant (protein, UniProt P02638 2-92, looked up)
# Protein S100-B: SELEKAVVALIDVFHQYSGREGDKHKLKKSELKELINNELSHFLEEIKEQEVVDKVMETLDSDGDGECDFQEFMAFVAMITTACHEFFEHE
# Tests used:
# [1] = test system: protein phosphatase 1 (PP1); conditions: concentrations used in cells; cited from earlier work
# HA-Ndr WT = conditions: 1 μM, 1 h
# Procedure: COS-1 cells expressing HA-Ndr WT (as in Example 5) are treated either with solvent alone (Control) or with a panel of cell permeable protein phosphatase inhibitors. The cells are then extracted, HA-Ndr is immunoprecipitated with the anti-HA mAb 12CA5, and the kinase activity of Ndr measured as before, using the peptide substrate.
# PP2A = conditions: concentrations used in cells (okadaic acid 1 μM, cyclosporin A 1 μM); cited from earlier work
# HA-Ndr = experiment: in vitro incubation of immunoprecipitated HA-Ndr with PP2A; format: biochemical; conditions: PP2A plus 100 nM okadaic acid
# Procedure: In order to provide evidence that PP2A directly interacts with and thereby affects Ndr activity, HA-Ndr is immunoprecipitated from cells treated with 20 μM A23187 or with solvent alone for 5 min. In parallel, HA-Ndr is immunoprecipitated from cells treated with 1 μM okadaic acid or solvent alone ("Control") for 1 h. Each immunoprecipitate is then incubated in vitro for 1 h with either buffer alone, with purified PP2A (dimeric form consisting of catalytic subunit and 65 kDa regulatory subunit) or with PP2A plus 100 nM okadaic acid. Thereafter, the immunoprecipitates are washed and assayed for Ndr peptide kinase activity as described in Example 5.
# [2] = test system: M960618 melanoma cells (Ndr activity); experiment: W-7 effect on Ndr activity in S100B-positive melanoma cells; format: cell-based; conditions: Homo sapiens, 1.25 h; read-out: reduction of Ndr activity
# [3] = test system: S100 proteins, including S100B; conditions: cited from earlier work
# S100B-Ndr = experiment: inhibition of binding of S100B to Ndr
# Ndr = Ndr activity in cell lines with and without S100B expression; format: cell-based, human; conditions: p<0.05, two-tailed Students' t test
# Procedure: COS cells are transfected with pECE-Ndr or with empty vector (pECE). 20 μg of these extracts are immunoprecipitated with anti-Ndr (which has been covalently cross-linked to protein A-Sepharose using dimethyl pimelimidate). 400 μg of extract from HeLa cells is immunoprecipitated in parallel. The immunoprecipitates are separated by SDS-PAGE and then immunoblotted using biotinylated anti-Ndr and streptavidin-peroxidase. […] A band of ~53 kDa is also present in HeLa and COS-1 cells and probably represents a proteolytic fragment of full-length Ndr.
# Using the method described above, the 12 cell lines are analysed for Ndr abundance. The amount of Ndr (in ng per 400 μg cell extract) is quantitated by densitometry of the blots, and comparison with blots containing known amounts of GST-Ndr. The same cell lines are also assayed for the presence or absence of S100B, by immunoprecipitation of cell extracts with anti-S100B, followed by immunoblotting of the precipitates.
# Ndr Δ1-84 = experiment: immune complex kinase assay with S100B and Ca^2+, Ndr lacking amino terminal domain; format: biochemical, human
# Procedure: (§1) In immune complex kinase assays and autophosphorylation assays (see below), COS-1 cells are transfected as described above or with pECE-Ndr-K118A. After 72 h, cells are washed with ice-cold PBS and lysed in lysis buffer (20 mM Tris-HCl pH 8.0, 150 mM NaCl, 1% (v/v) NP-40, 10% (v/v) glycerol, 5 mM EDTA, 0.5 mM EGTA, 0.5 mM phenylmethyl-sulfonyl fluoride, 4 μM leupeptin, 1 mM benzamidine, 1 μM microcystin and 1 mM Na3 VO4). Lysates are centrifuged at 14,000 g for 20 min. Duplicate aliquots of supernatant (250 μg, 2.5 mg/ml) are incubated for 2 h at 0° C. with 10 μg/ml Ab^1-465. Immune complexes are precipitated by addition of 2 μl protein A-Sepharose (Pharmacia) and mixing for 1 h. The beads are then washed twice with lysis buffer, once with lysis buffer containing 1 M NaCl, with lysis buffer again, and finally twice with 20 mM Tris-HCl pH 7.5. Beads are resuspended in 30 μl buffer containing 20 mM Tris-HCl pH 7.5, 10 mM MgCl2, 100 μM CaCl2, 1 mM dithiothreitol, 100 μM [γ-^32 P] ATP (0.5 μCi/μls), 1 mM Ndr substrate peptide ([…], SEQ. ID. No. 1), 1 μM cAMP-dependent protein kinase inhibitor peptide (PKI; purchased from Bachem, Bubendorf, Swit zerland), 4 μM leupeptin, 1 mM benzamidine, 1 μM microcystin and, in some assays, 20 μM bovine S100B. After 60 min at 30° C., phosphate incorporation into the peptide is quantitated as described above. […]
# Ndr Δ65-81 = experiment: immune complex kinase assay with S100B and Ca^2+, Ndr deletion of amino acids 65-81; format: biochemical, human
# Procedure: as §1
# GST-Ndr [4] = target: T1, GST-Ndr (Homo sapiens, UniProt Q15208); experiment: GST-Ndr peptide kinase assay with calcium-binding proteins; format: biochemical
# T1 construct: made in house
# Procedure: 1 μg GST-Ndr WT or GST-Ndr K118A, either in solution or immobilised on glutathione-agarose beads, is assayed in a 20 μl reaction containing 20 mM Tris-HCl pH 7.5, 5 mM MgCl2, 1 mM dithiothreitol, 100 μM [γ-^32 P] […] Reactions are supplemented with either 2 mM EGTA or various concentrations of CaCl2. Bovine CaM, bovine S100B (both from Sigma) or recombinant calcium-binding proteins. After incubation at 30° C. for 60 min, aliquots of the reaction are spotted on to P81 phosphocellulose paper and counted as above.
# In brief, coding regions are cloned into the PGEMEX expression vector (Promega) and resultant plasmids used to transform E. coli BL-21 LysS cells. After induction, S100 proteins are purified by ammonium sulphate precipitation followed by Ca^2+ -dependent phenyl-Sepharose chromatography.
# The proteins are added together with Ca^2+ into GST-N dr peptide kinase assays. The proteins tested comprised S100A1 (S100α), S100A2 (S100L), S100A4 (CAPL), S100A6 (calcyclin) and S100B (S100β); α-parvalbumin is included as a negative control.
# In order to estimate the binding affinity of S100B for Ndr, kinase assays are performed in which GST-Ndr is mixed with various concentrations of purified bovine S100B homodimer, in the presence or absence of calcium.
# To determine whether activation of Ndr by S100B occurs at physiological Ca^2+ concentrations, Ndr activity is assayed with or without added S100B over a range of Ca^2+ concentrations.
# wild-type Ndr = experiment: immune complex kinase assay with S100B and Ca^2+, wild-type Ndr; format: biochemical, human; conditions: Ca^2+ -S100B
# Procedure: as §1
# GST-Ndr [5] = target: T1, GST-Ndr; experiment: preincubation of immobilised GST-Ndr followed by peptide kinase assay; format: biochemical
# Procedure: Activation of Ndr by S100B appears to be independent of kinase autophosphorylation. However, increased autophosphorylation is observed: GST-Ndr is immobilised on agarose and preincubated with or without Ca^2+ -S100B, in the presence or absence of Mg-ATP (to either allow or not allow autophosphorylation). The agarose beads are then washed and assayed for Ndr activity as set out herein with radiolabelled ATP and peptide substrate, and in the presence or absence of Ca^2+ -S100B. Preincubation of GST-Ndr with Mg-ATP alone increases its peptide kinase activity, showing that autophosphorylation activates Ndr. […] Preincubation with Ca^2+ S100B alone has no effect, because activation by Ca^2+ -S100B in the preincubation step is mediated by Ndr autophosphorylation.
# Ca^2+ -S100B increases the rate Ndr autophosphorylation by 2.5-fold, and it increases autophosphorylation-dependent Ndr activation by 2-fold. However, the total activation of Ndr by Ca^2+ -S100B is larger than this (5- to 10-fold). Thus, the increased autophosphorylation of Ndr caused by Ca^2+ -S100B is not by itself sufficient to account for Ndr activation. In addition, Ca^2+ -S100B probably stimulates Ndr kinase activity directly, in an autophosphorylation-independent manner.
# GST-Ndr [6] = target: T1, GST-Ndr; experiment: Ndr autophosphorylation assay; format: biochemical
# Procedure: In immune complex kinase assays and autophosphorylation assays (see below), COS-1 cells are transfected as described above or with pECE-Ndr-K118A. After 72 h, cells are washed with ice-cold PBS and lysed in lysis buffer (20 mM Tris-HCl pH 8.0, 150 mM NaCl, 1% (v/v) NP-40, 10% (v/v) glycerol, 5 mM EDTA, 0.5 mM EGTA, 0.5 mM phenylmethyl-sulfonyl fluoride, 4 μM leupeptin, 1 mM benzamidine, 1 μM microcystin and 1 mM Na3 VO4). Lysates are centrifuged at 14,000 g for 20 min. Duplicate aliquots of supernatant (250 μg, 2.5 mg/ml) are incubated for 2 h at 0° C. with 10 μg/ml Ab^1-465. Immune complexes are precipitated by addition of 2 μl protein A-Sepharose (Pharmacia) and mixing for 1 h. The beads are then washed twice with lysis buffer, once with lysis buffer containing 1 M NaCl, with lysis buffer again, and finally twice with 20 mM Tris-HCl pH 7.5. […] After 60 min at 30° C., phosphate incorporation into the peptide is quantitated as described above.
# The proteins are added together with Ca^2+ into GST-N dr peptide kinase assays. […] The increased kinase activity observed in the presence of S100A1 and S100B is not due to contaminating kinase activity, because no activity is recorded when kinase-negative GST-Ndr, containing a point mutation (Lys^118→Ala) in the ATP binding pocket, is used in place of wild-type GST-Ndr. […]
# T1 sequence (Q15208 whole entry): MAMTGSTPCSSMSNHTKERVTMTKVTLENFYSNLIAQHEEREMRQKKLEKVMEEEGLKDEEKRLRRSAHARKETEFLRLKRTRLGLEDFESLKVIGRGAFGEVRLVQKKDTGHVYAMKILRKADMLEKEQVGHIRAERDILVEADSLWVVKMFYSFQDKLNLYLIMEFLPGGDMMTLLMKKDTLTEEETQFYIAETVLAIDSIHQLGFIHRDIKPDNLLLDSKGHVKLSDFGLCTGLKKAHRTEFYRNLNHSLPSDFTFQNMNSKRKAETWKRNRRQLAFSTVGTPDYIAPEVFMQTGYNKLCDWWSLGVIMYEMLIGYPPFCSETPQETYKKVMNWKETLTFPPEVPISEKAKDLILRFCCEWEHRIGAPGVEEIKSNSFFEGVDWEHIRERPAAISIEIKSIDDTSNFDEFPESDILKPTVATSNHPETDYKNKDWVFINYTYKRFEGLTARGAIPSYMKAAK
molecule,measurement,setting,value
C=C1[C@@H](O)[C@@H]2O[C@]3(CC[C@H](/C=C/[C@@H](C)[C@@H]4CC(C)=C[C@@]5(O[C@H](C[C@@](C)(O)C(=O)O)CC[C@H]5O)O4)O3)CC[C@H]2O[C@@H]1[C@@H](O)C[C@H](C)[C@H]1O[C@@]2(CCCCO2)CC[C@H]1C [okadaic acid],effect on PP1,[1],does not affect protein phosphatase 1 (PP1)
same,activation of Ndr,HA-Ndr WT,~ 8 fold
same,inhibition of intracellular PP2A,PP2A,completely inhibits intracellular PP2A
same,prevention of inactivation of HA-Ndr by PP2A,HA-Ndr,inactivation is prevented
NCCCCCCNS(=O)(=O)c1cccc2c(Cl)cccc12 [W-7],inhibition at 50 µM,[2],~80%
same,binding to S100 proteins,[3],"binds to several S100 proteins, including S100B, in a Ca^2+ -dependent manner"
KRLRRSAHARKETEFLRLKRTRLGL [SEQ ID No.32],inhibition of binding of S100B to Ndr,S100B-Ndr,effectively inhibit binding of S100B to Ndr
B1,"Ndr average specific activity, S100B-positive versus S100B-negative cell lines",Ndr,~ 2 fold
same,response to S100B,Ndr Δ1-84,failed to respond to S100B
same,sensitivity to S100B,Ndr Δ65-81,ablated its sensitivity to S100B
same,maximal activation of Ndr,"GST-Ndr [4]; 2 mM EGTA, without calcium",much lower
same,activation of Ndr in the absence of calcium,GST-Ndr [4]; absence of calcium,partial activation of Ndr in the absence of calcium
same,increase in Ndr kinase activity,"GST-Ndr [4]; added together with Ca^2+, 60 min, 30° C.",5-6 fold
same,maximal activation of Ndr,"GST-Ndr [4]; presence of calcium, bovine S100B homodimer",~ 7 fold
same,degree of activation of immunoprecipitated Ndr,wild-type Ndr,~ 2 fold
same,increase in autophosphorylation-dependent Ndr activation,GST-Ndr [5]; Ca^2+ -S100B,2 fold
same,peptide kinase activity after preincubation,GST-Ndr [5]; preincubation with Ca^2+ -S100B alone,no effect
same,peptide kinase activity after preincubation,GST-Ndr [5]; preincubation with Mg-ATP and Ca^2+ -S100B,even greater autoactivation of the peptide kinase activity
same,Ndr autophosphorylation,GST-Ndr [6],stimulated Ndr autophosphorylation
same,increase in rate of Ndr autophosphorylation,GST-Ndr [6]; Ca^2+ -S100B,2.5 fold
